Laboratory results from IntAct's records for PubMed 31515488.

B1: Kinetochore protein NDC80 homolog (Homo sapiens), O14777 (parent)
chain: MKRSSVSSGGAGRLSMQELRSQDVNKQGLYTPQTKEKPTFGKLSINKPTSERKVSLFGKRTSGHGSRNSQLGIFSSSEKIKDPRPLNDKAFIQQCIRQLCEFLTENGYAHNVSMKSLQAPSVKDFLKIFTFLYGFLCPSYELPDTKFEEEVPRIFKDLGYPFALSKSSMYTVGAPHTWPHIVAALVWLIDCIKIHTAMKESSPLFDDGQPWGEETEDGIMHNKLFLDYTIKCYESFMSGADSFDEMNAELQSKLKDLFNVDAFKLESLEAKNRALNEQIARLEQEREKEPNRLESLRKLKASLQGDVQKYQAYMSNLESHSAILDQKLNGLNEEIARVELECETIKQENTRLQNIIDNQKYSVADIERINHERNELQQTINKLTKDLEAEQQKLWNEELKYARGKEAIETQLAEYHKLARKLKLIPKGAENSKGYDFEIKFNPEAGANCLVKYRAQVYVPLKELLNETEEEINKALNKKMGLEDTLEQLNAMITESKRSVRTLKEEVQKLDDLYQQKIKEAEEEDEKCASELESLEKHKHLLESTVNQGLSEAMNELDAVQREYQLVVQTTTEERRKVGNNLQRLLEMVATHVGSVEKHLEEQIAKVDREYEECMSEDLSENIKEIRDKYEKKATLIKSSEE
B2: Ras-related protein Rab-39B (Homo sapiens), Q96DA2 (parent)
chain: MEAIWLYQFRLIVIGDSTVGKSCLIRRFTEGRFAQVSDPTVGVDFFSRLVEIEPGKRIKLQIWDTAGQERFRSITRAYYRNSVGGLLLFDITNRRSFQNVHEWLEETKVHVQPYQIVFVLVGHKCDLDTQRQVTRHEAEKLAAAYGMKYIETSARDAINVEKAFTDLTRDIYELVKRGEITIQEGWEGVKSGFVPNVVHSSEEVVKSERRCLC
B3: Isoform 1 of EF-hand domain-containing family member C2 (Homo sapiens), Q5JST6-1 (parent)
chain: MALPLLPGNSFNRNVGKEKFHKSQHWGFCNNVMMLVSDEKPGIGGEPLLGQKIKPKCSIYPKGDGSDVPSWVAFDKQVLSFDAYLEEEVLDKSQTNYRIRYYKIYFYPEDDTIQVNEPEVKNSGLLQGTSIRRHRITLPPPDEDQFYTVYHFNVGTEVVFYGRTFKIYDCDAFTRNFLRKIGVKVNPPVQCPEDPYMKIRREVVEHVEPLRPYESLDTLKQFLQYHGKILCFFCLWDDSVSMFGDRRELILHYFLCDDTIEIKELLPHSSGRDALKMFLRRSKLPKNCPPRVYQPGQITDRAVLNSYGDFIKNQADGYLFDRYKLGKVDQEFYKDSDLSLGVTINVWGRKVLLYDCDEFTKSYYKSKYGIENFTSVSCKPPSPPPKIERKFPPYNGFGSEEDSLRNCIDLKPTPHRRNFKKFMEKDSYGSKSNILRFFAKLVTDKCVDLDRMFVISYYLGDDTISVFEPIERNSGIAGGMFLKRSRVKKPGQEVFKSELSEYIKAEELYIGVTVNVNGYLFRLLNADEYTLNYMEQNTDKYPFSNLKLALQKLKQEEGKSRELKQVFKAADSKHTNMVDYNTFRDILMSLTVGNLAEQEFVTIARHYRVPEGTCSDMDFLIALAHEKFKKNMFENFDTFIYSCVYEDREKKNVLPTKDIKRLCKSSRLPLSDDLLESLLSRFEDSEKQIDYKSFFSALNWRKNPVPELQPASYLKERCEDVWLGMPSPIPAKYIDYWTFLKDAFGLEEE
partner: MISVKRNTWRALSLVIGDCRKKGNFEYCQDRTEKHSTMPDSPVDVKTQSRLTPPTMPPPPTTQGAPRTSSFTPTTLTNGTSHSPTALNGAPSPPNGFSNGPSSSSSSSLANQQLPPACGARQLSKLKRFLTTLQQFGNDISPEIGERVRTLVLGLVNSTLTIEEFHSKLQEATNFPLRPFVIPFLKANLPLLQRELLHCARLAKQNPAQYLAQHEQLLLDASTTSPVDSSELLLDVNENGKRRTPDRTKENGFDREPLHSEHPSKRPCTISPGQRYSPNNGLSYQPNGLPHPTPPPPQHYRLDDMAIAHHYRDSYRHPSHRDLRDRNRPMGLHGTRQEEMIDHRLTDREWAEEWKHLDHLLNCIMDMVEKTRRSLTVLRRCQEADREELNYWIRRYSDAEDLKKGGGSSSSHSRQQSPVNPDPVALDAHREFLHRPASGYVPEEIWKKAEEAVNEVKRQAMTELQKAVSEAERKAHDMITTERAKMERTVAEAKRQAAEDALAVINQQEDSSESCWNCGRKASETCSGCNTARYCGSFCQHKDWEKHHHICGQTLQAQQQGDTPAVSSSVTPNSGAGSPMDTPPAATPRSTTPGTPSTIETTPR
B4: Tektin-4 (Homo sapiens), Q8WW24 (parent)
chain: MAQTVPPCELPCKEYDVARNTGAYTSSGLATASFRTSKYLLEEWFQNCYARYHQAFADRDQSERQRHESQQLATETQALAQRTQQDSTRTVGERLQDTHSWKSELQREMEALAAETNLLLAQKQRLERALDATEVPFSITTDNLQCRERREHPNLVRDHVETELLKEAELIRNIQELLKRTIMQAVSQIRLNREHKETCEMDWSDKMEAYNIDETCGRHHSQSTEVQAHPYSTTFQESASTPETRAKFTQDNLCRAQRERLASANLRVLVDCILRDTSEDLRLQCDAVNLAFGRRCEELEDARYKLHHHLHKTLREITDQEHNVAALKQAIKDKEAPLHVAQTRLYLRSHRPNMELCRDAAQFRLLSEVEELNMSLTALREKLLEAEQSLRNLEDIHMSLEKDIAAMTNSLFIDRQKCMAHRTRYPTILQLAGYQ
partner: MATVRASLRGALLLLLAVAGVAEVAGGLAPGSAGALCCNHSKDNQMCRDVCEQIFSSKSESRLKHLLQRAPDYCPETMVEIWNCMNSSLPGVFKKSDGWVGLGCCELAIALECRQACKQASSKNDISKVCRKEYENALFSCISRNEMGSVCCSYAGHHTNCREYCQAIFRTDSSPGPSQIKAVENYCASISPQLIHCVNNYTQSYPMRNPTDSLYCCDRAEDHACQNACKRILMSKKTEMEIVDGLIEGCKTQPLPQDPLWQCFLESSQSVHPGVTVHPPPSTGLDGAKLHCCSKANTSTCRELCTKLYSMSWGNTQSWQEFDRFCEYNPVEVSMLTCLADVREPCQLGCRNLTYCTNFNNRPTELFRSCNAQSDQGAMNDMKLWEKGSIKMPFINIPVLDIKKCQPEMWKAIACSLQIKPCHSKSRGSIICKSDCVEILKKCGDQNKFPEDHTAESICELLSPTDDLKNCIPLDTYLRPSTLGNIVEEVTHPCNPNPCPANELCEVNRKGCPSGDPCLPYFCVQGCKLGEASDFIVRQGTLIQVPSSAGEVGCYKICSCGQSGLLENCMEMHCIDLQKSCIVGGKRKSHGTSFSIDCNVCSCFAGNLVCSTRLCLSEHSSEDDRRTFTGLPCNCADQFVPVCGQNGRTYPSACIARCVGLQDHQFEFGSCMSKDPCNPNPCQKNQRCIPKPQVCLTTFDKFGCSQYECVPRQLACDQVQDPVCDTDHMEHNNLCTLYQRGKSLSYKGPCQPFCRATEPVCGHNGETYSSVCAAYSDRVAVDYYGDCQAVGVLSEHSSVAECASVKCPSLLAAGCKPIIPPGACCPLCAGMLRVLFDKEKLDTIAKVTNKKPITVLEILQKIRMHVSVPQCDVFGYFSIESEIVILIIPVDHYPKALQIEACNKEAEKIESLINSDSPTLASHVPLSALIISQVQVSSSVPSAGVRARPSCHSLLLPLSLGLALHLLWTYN
B5: Protein FAM13C (Homo sapiens), Q8NE31 (parent)
chain: MFSCFCFSLQDNSFSSTTVTECDEDPVSLHEDQTDCSSLRDENNKENYPDAGALVEEHAPPSWEPQQQNVEATVLVDSVLRPSMGNFKSRKPKSIFKAESGRSHGESQETEHVVSSQSECQVRAGTPAHESPQNNAFKCQETVRLQPRIDQRTAISPKDAFETRQDLNEEEAAQVHGVKDPAPASTQSVLADGTDSADPSPVHKDGQNEADSAPEDLHSVGTSRLLYHITDGDNPLLSPRCSIFSQSQRFNLDPESAPSPPSTQQFMMPRSSSRCSCGDGKEPQTITQLTKHIQSLKRKIRKFEEKFEQEKKYRPSHGDKTSNPEVLKWMNDLAKGRKQLKELKLKLSEEQGSAPKGPPRNLLCEQPTVPRENGKPEAAGPEPSSSGEETPDAALTCLKERREQLPPQEDSKVTKQDKNLIKPLYDRYRIIKQILSTPSLIPTIQEEEDSDEDRPQGSQQPSLADPASHLPVGDHLTYSNETEPVRALLPDEKKEVKPPALSMSNLHEATMPVLLDHLRETRADKKRLRKALREFEEQFFKQTGRSPQKEDRIPMADEYYEYKHIKAKLRLLEVLISKQDVAKTI
B6: Peroxisomal biogenesis factor 19 (Homo sapiens), P40855 (parent)
chain: MAAAEEGCSVGAEADRELEELLESALDDFDKAKPSPAPPSTTTAPDASGPQKRSPGDTAKDALFASQEKFFQELFDSELASQATAEFEKAMKELAEEEPHLVEQFQKLSEAAGRVGSDMTSQQEFTSCLKETLSGLAKNATDLQNSSMSEEELTKAMEGLGMDEGDGEGNILPIMQSIMQNLLSKDVLYPSLKEITEKYPEWLQSHRESLPPEQFEKYQEQHSVMCKICEQFEAETPTDSETTQKARFEMVLDLMQQLQDLGHPPKELAGEMPPGLNFDLDALNLSGPPGASGEQCLIM
partner: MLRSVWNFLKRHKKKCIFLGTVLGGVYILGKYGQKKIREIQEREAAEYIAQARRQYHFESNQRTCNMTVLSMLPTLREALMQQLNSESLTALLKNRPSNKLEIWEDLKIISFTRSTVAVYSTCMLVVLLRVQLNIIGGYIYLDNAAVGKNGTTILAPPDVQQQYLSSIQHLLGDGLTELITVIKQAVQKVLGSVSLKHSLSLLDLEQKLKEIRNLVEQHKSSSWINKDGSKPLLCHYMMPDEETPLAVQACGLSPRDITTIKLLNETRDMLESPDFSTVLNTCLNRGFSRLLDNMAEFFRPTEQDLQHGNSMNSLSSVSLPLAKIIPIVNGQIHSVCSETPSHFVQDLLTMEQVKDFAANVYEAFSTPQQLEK

Variants of: B1
Details: with amol2_human AMOTL2, Q9Y2J4
Sequence of amol2_human AMOTL2, Q9Y2J4 (Q9Y2J4 whole entry): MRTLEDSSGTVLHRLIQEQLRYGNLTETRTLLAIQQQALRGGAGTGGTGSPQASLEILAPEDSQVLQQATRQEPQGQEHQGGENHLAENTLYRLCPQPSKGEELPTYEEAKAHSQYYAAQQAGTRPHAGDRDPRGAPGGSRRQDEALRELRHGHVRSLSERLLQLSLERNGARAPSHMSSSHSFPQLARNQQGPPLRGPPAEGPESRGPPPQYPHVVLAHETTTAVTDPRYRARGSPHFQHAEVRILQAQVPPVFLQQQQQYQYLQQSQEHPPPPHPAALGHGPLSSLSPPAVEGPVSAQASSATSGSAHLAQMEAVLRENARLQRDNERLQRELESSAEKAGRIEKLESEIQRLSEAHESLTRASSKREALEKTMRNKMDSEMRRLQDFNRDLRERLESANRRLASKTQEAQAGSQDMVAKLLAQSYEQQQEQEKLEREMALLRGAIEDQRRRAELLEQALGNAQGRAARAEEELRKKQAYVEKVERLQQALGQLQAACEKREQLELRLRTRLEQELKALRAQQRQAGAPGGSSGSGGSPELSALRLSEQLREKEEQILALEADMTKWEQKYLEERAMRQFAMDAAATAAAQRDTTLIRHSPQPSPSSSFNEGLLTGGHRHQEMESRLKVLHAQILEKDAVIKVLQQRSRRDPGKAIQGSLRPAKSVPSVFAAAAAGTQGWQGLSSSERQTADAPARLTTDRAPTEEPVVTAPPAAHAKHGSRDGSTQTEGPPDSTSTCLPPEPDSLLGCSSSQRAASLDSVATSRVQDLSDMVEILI

| effect of a mutation on the interaction | Variant |
| --- | --- |
| with no effect | S55P |

Variants of: B1
Details: with txlna_human TXLNA

| effect of a mutation on the interaction | Variant |
| --- | --- |
| with no effect | S55P |

Variants of: B1
Details: with atf4_human ATF4, P18848
Sequence of atf4_human ATF4, P18848 (P18848 whole entry): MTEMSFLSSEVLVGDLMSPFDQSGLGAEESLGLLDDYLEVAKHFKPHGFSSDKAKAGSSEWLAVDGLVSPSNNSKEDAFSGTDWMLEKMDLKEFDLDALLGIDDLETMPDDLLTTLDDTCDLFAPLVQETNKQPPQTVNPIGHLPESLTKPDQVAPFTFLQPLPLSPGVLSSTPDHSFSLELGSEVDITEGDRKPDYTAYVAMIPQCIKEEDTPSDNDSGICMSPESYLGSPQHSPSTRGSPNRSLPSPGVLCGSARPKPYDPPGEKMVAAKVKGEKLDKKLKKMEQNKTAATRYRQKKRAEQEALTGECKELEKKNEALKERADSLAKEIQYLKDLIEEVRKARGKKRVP

| effect of a mutation on the interaction | Variant |
| --- | --- |
| with no effect | S55P |

Variants of: B1
Details: with tnip1_human TNIP1, Q15025
Sequence of tnip1_human TNIP1, Q15025 (Q15025 whole entry): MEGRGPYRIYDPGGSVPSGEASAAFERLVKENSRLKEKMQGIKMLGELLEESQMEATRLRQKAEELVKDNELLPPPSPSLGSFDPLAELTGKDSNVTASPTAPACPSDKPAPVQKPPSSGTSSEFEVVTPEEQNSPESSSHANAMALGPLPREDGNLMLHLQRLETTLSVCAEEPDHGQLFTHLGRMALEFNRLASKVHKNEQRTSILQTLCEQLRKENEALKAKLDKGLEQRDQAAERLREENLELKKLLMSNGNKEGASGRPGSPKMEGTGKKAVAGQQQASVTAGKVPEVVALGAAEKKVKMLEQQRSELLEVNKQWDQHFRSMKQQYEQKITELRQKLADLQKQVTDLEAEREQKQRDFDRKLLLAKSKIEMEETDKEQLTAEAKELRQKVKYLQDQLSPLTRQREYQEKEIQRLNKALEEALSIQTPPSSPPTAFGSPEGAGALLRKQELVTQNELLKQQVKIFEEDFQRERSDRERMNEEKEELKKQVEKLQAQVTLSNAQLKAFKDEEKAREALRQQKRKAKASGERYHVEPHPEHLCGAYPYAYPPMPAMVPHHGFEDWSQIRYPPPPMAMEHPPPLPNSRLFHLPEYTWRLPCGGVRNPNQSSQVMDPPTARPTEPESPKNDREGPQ

| effect of a mutation on the interaction | Variant |
| --- | --- |
| with no effect | S55P |

Variants of: B2
Details: with rufy1_human RUFY1, Q96T51
Sequence of rufy1_human RUFY1, Q96T51 (Q96T51 whole entry): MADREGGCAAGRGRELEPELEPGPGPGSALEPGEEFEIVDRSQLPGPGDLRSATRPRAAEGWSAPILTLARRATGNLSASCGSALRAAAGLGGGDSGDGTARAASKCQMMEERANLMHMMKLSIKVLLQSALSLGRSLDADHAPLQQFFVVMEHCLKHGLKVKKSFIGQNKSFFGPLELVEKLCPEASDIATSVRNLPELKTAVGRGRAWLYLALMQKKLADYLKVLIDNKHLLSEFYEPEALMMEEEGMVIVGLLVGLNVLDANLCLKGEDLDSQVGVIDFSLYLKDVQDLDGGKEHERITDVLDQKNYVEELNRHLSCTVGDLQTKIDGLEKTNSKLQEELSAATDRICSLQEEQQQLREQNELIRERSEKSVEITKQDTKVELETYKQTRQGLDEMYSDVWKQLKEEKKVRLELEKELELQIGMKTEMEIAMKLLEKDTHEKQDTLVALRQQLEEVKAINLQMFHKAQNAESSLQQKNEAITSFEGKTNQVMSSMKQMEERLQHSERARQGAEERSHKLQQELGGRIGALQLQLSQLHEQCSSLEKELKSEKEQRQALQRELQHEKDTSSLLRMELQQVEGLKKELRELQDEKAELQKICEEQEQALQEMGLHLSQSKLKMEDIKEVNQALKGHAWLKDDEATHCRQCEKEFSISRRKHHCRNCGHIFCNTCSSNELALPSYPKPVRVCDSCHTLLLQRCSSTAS

| effect of a mutation on the interaction | Variant |
| --- | --- |
| disrupting interaction strength | R177S |

Variants of: B3
Details: with mtg8_human RUNX1T1, Q06455

| effect of a mutation on the interaction | Variant |
| --- | --- |
| with no effect | V376I |

Variants of: B3
Details: with mtg8_human RUNX1T1, Q06455
Remark: another data set of the same source

| effect of a mutation on the interaction | Variant |
| --- | --- |
| disrupting interaction strength | N31S |

Variants of: B4
Details: with reck_human RECK

| Variant | effect of a mutation on the interaction |
| --- | --- |
| S100G | with no effect |
| R64W | with no effect |
| A80V | with no effect |
| R82C | with no effect |

Further lines, results first:

| effect of a mutation on the interaction | Variant |
| --- | --- |
| disrupting interaction strength | I404T |
| with no effect | M374T |
| with no effect | M374V |
| with no effect | R255C |
| with no effect | D403N |
| with no effect | C272S |

Variants of: B5
Details: with kif2a_human KIF2A

| effect of a mutation on the interaction | Variant |
| --- | --- |
| with no effect | K97R |

Variants of: B5
Details: with tfp11_human TFIP11, Q9UBB9
Sequence of tfp11_human TFIP11, Q9UBB9 (Q9UBB9 whole entry): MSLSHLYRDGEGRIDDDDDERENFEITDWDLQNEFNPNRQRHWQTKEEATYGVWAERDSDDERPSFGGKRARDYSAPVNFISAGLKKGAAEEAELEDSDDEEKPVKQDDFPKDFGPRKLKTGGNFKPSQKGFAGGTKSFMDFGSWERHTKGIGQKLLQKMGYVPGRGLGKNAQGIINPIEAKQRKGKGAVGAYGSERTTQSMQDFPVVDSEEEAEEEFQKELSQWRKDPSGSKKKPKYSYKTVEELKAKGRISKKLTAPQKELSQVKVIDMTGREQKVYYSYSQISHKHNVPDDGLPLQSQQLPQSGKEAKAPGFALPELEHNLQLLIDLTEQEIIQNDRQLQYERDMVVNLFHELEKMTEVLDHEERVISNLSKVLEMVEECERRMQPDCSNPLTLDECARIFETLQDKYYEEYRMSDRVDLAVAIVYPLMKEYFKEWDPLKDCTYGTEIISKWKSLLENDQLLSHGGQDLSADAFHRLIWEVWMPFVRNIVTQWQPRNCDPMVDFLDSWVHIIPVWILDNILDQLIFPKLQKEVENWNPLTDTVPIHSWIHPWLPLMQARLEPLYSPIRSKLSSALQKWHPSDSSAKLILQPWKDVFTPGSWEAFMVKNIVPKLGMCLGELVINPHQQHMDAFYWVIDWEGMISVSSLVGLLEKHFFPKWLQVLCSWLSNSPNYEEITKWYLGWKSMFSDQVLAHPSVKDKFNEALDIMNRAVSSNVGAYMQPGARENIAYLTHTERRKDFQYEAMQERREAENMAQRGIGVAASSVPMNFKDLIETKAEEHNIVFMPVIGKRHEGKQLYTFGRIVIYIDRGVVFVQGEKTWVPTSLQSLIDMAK

| effect of a mutation on the interaction | Variant |
| --- | --- |
| with no effect | P147S |

Variants of: B6
Details: with pex3_human PEX3, P56589

| effect of a mutation on the interaction | Variant |
| --- | --- |
| with no effect | L21V |
| with no effect | A85V |
| with no effect | R207G |
| with no effect | L26I |
| with no effect | E6K |
